According to patent US20230349919A1:

Experiments:
[1] = molecular target: human IL-6Rα (hIL-6Rα), barcoded negative control antigen (human) (UniProt P08887); assay: barcoded-antigen count on source cell (scRNA-seq)
[2] = molecular target: human IL-4Rα (hIL-4Rα) monomeric protein (human) (UniProt P24394); assay: barcoded-antigen count on source cell (scRNA-seq)
[3] = molecular target: Ole e 1 (olive) (UniProt P19963); assay: barcoded antigen sequencing of single IgE PCs with trapped IgE
[4] = molecular target: Ole e 1 (olive) (UniProt P19963); assay: barcoded antigen sequencing of single IgE PCs with trapped IgE [cont.]
[5] = molecular target: Der p 2 (house dust mite) (UniProt P49278); assay: barcoded antigen sequencing of single IgE PCs with trapped IgE
Sequence of Der p 2 (house dust mite) (P49278 18-146 limits assumed): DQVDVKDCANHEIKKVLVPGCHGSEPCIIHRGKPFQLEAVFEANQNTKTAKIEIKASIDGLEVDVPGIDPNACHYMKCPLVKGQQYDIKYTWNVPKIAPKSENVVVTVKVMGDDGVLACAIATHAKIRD

[6] = molecular target: Der f 1 (house dust mite) (UniProt P16311); assay: as above
Sequence of Der f 1 (house dust mite) (P16311 99-321 limits assumed): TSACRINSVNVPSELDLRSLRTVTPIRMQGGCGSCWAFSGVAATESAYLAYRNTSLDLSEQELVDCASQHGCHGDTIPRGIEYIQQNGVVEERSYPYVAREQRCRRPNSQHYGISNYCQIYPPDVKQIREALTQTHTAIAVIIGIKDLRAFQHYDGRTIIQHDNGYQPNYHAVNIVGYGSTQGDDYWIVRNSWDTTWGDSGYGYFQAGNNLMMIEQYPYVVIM

[7] = molecular target: Der p 1 (house dust mite) (UniProt P08176); assay: as above
Sequence of Der p 1 (house dust mite) (P08176 99-320 limits assumed): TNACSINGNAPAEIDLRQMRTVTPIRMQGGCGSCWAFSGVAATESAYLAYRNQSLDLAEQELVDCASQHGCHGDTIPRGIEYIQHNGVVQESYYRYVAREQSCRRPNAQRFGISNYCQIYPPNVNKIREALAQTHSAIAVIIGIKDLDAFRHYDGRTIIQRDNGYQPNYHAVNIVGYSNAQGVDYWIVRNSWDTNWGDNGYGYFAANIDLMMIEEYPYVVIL

[8] = molecular target: Der p 2 (house dust mite) (UniProt P49278); assay: barcoded antigen sequencing of single IgE PCs with trapped IgE [cont.]
[9] = molecular target: Der f 1 (house dust mite) (UniProt P16311); assay: as above
[10] = molecular target: Der p 1 (house dust mite) (UniProt P08176); assay: as above
[11] = molecular target: Der p 2 (house dust mite) (UniProt P49278); assay: antigen specificity score against Ole e 1 from barcode counts of single IgE PCs [cont.]
[12] = molecular target: Der f 1 (house dust mite) (UniProt P16311); assay: as above
[13] = molecular target: Der p 1 (house dust mite) (UniProt P08176); assay: as above

Sequence of Ole e 1 (olive) (P19963 whole entry): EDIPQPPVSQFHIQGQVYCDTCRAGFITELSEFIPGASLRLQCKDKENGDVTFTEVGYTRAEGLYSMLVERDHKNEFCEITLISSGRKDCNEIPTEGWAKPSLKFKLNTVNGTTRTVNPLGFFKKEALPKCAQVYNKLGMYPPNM
Sequence of human IL-6Rα (hIL-6Rα), barcoded negative control antigen (human) (P08887 20-358 limits assumed): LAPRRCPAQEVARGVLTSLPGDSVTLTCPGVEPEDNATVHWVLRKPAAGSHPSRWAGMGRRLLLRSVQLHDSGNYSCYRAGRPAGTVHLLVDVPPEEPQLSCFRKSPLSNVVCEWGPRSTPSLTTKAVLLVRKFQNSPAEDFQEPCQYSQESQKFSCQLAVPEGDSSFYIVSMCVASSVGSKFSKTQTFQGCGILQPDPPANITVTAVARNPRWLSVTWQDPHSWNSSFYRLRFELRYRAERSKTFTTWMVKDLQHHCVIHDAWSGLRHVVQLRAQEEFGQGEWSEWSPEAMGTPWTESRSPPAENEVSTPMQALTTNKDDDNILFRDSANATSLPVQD

B1: Table 1 Line # 3 antibody (BM_Plasma_cell) (antibody, human IgG4, V domains shown)
VH: EVQLVESGGGLVQPGRSLRLSCAASGFTFDDYAMHWVRQVTGKGLEWVSGINWNSGNIGYADSVRGRFTISRDNAKNSLYLQMNSLRAEDTALYYCAKDSGSSWYGYFDLWGRGTLVTVSS
VL: DIQMTQSPSTLSASVGDRVTITCRASQSISRWLAWYQQKPGKAPKFLIYKASSLESGVPSRFSGSGSGTEFTLTISSLQPDDFATYYCQQYNSDSRTFGQGTKVEIK
For B1, the REGN78.L15 ab raw [1] was 236 counts.

B2: Table 1 Line # 30 antibody (SP_B_cell) (antibody, human IgG4, V domains shown)
VH: EVQLVESGGGMVQPGRSLRLSCAASGFTFDDYAMHWVRQAPGKGLEWVSGIKWNGGNIGYADSVKDRFTISRDNAKNSLFLQMNSLRAEDAALYSCAKDIGGSQYALDVWGQGTTVTVSS
VL: DIQMTQSPSSLSASVGDRVTITCRASLSIGSYLNWYQKKPGKAPKLLIFVASSLQGGVSSRFSGSGSGTDFTLTISSLQPEDFATYYCQQTYSTPFTFGPGTKVDIK
In the case of B2, the REGN560.L15 ab raw [2] is reported as 9180 counts and the REGN78.L15 ab raw [1] is reported as 179 counts.

B3: Candidate ID 13 (antibody, V domains shown)
VH: QAYLQQSGAELVRPGASVKMSCKASGYTFISYNMHWVKQTRRQGLEWIGAIYPGNGDTSYNQKFKGKATLTVDKSSSTAYMQLSSLTSEDSAVYFCARWDYYGSSYGAYWGQGTLVTVSA
VL: DIQMTQSPASLSVSVGETVTITCRASENIYSNLAWYQQKQGKSPQLLVYAATNLADGVPSRFSGSGSGTQYSLKINSLQSEDFGSYYCQHFWGTPWTFGGGTKLEIK
With B3 the Raw Antigen Barcode Count [3] was 1 and the Normalized Barcode Count [4] was -0.434.

B4: Table 1 Line # 47 antibody (SP_Plasma_cell) (antibody, human IgG4, V domains shown)
VH: ELQLVESGGGLVQPGRSLRLSCAASGFPFDAYAMHWVRQAPGKGLQWVSGIRWNGGNIDYVDSVKGRFTISRDNAKNSLYLQLNSLRSEDTALYYCAKDLGGSHYALDVWGQGTMVTVSS
VL: DIQMTQSPSSLSASVGARVTITCRASQSINNDLNWYQQKPGKAPKFLIYAASSLQSGVPSRFSGRGSGTDFTLTIRSLQPEDFAVYYCQQTYSSPFTFGPGTKVDLK
For B4, the REGN560.L15 ab raw [2] was 1520 counts and the REGN78.L15 ab raw [1] was 6 counts.

B5: Table 1 Line # 48 antibody (SP_Plasma_cell) (antibody, human IgG4, V domains shown)
VH: EVQLVESGGVLVQPGRSLRLSCAASGFTFDDFAMHWVRQAPGKGLEWVSGISWNGNSIGYADSVKGRFTISRDNAKNSLYLQMNSLRTEDTALYYCAKDTSSWSYYYGMDVWGQGTTVTVSS
VL: DIQMTQSPSSLSASVGDRVTITCRASQGIRNDLGWYQQKPGKAPKRLIYAASNLQSGVPSRFSGSGSGTEFTFTISSLQPEDFATYYCLQHNSYPYTFGQGTKLEIK
B5 showed an REGN560.L15 ab raw [2] of 1240 counts and an REGN78.L15 ab raw [1] of 17 counts.

B6: Table 1 Line # 39 antibody (SP_B_cell) (antibody, human IgG4, V domains shown)
VH: EVQLVESGGDLVQPGRSLRLSCAASGFTFDDYAMYWVRQTPGKGLEWVSRITWNSGSIGYAGSVQGRFTISRDNAKNSLYLQMNSLRAEDSALYYCAKDIGGSYLGFDYWGQGTLVTVSS
VL: EIVLTQSPGTLSLSPGERVTLSCRASQSVSATYFAWYQQKPGQPPRLLIYGASNRATGIPDRFSGSGSGTDFTLTISRLEPEDFAVYYCQQNGNSYTFGQGTILEIK
B6 was tested, and the REGN560.L15 ab raw [2] was 3560 counts and the REGN78.L15 ab raw [1] was 17 counts.

B7: Table 1 Line # 22 antibody (SP_B_cell) (antibody, human IgG4, V domains shown)
VH: EVQLVESGGGLVQPGRSLRLSCAASGFTFDDYAMYWVRQIPGKGLEWVSGITWNSGSIGYAGSVQGRFTISRDNAKNSLYLQMNSLRVEDTALYYCAKDIGGSYLGFDYWGQGALVTVSS
VL: ETVLTQSPGTLSLSPGERVTLSCRASQSVSSTYLAWYQQKPGQAPRLLIYGASNRATGIPDRFSGSGSGTDFTLTISRLEPEDFAVYYCQQYGSSYTFGQGTKLEIK
For B7, the REGN560.L15 ab raw [2] was 14000 counts and the REGN78.L15 ab raw [1] was 5 counts.

B8: Candidate ID 7 (antibody, V domains shown)
VH: QVLLKESGPGLVAPSQSLSITCTVSGFSLTSYGVSWVRQPPGKGLEWLGVIWGDGNTDYHSALISRLSIRKDNSKSQVFLKLNSLQTDDTATYYCAIGSPFAYWGQGTLVTVSA
VL: DVLMTQTPLSLPVSLGDQVSISCRSSQNIVHSTGNTYLEWYLQKPGQSPKLLIFKVSNRLSGVPDRFSGSGSGTDFTLNISRVEAADLGIYSCFQGSHVPFTFGSGTKLEIK
Work on B8 yielded a Raw Antigen Barcode Count [5] of 22, a Raw Antigen Barcode Count [3] of 0 and a Raw Antigen Barcode Count [6] of 32. The Raw Antigen Barcode Count [7] was 29, the Normalized Barcode Count [8] was 0.655 and the Normalized Barcode Count [4] was -1.13. It also gave a Normalized Barcode Count [9] of 1.18, a Normalized Barcode Count [10] of 0.862 and an Antigen Score [11] of 0.837. For the same binder, the Antigen Score [12] was 0.97 and the Antigen Score [13] was 0.89.

B9: Table 1 Line # 18 antibody (BM_Plasma_cell) (antibody, human IgG4, V domains shown)
VH: EVQLVQSGAEVKKPGESLKISCKGSGYRFTTNWIGWVRQMPGKGLEWMGIIYPDDSDTRYSPSFQGQVTISADKSINTAYLHWNSLKSSDTAIYYCARGANWFDPWGQGTLVTVSS
VL: EIVLTQSPGILSLSPGKRATLSCRASQSVSSNFLAWYQQKPGQAPRLLIYGTSSRANGIPDRFSGSGSGTDFTLTISGLEPEDFAEYYCQQYGSSVTFGQGTRLEIK
In the case of B9, the REGN78.L15 ab raw [1] is reported as 55 counts.

B10: Candidate ID 21 (antibody, V domains shown)
VH: QVQLQQSGPELVKPGASVKISCKAPGNAFSYSWMNWVKQRPGKGLEWVGRIYPGDGDTNYNGKFMGKATLTADKSSNTAYIQLSSLTSEDSAVYFCARSGGGTLYWYFDVWGTGTTVTVSS
VL: DIVMTQSPSSLALSVGQKVTMNCRSSQSLLNSFNQKNYLAWFQQKPGQSPRLLIYFASTRESGVPDRFIGSGSGTDFTLTISSVQAEDLADYFCQQHYNTPLTFGAGTTLELK
Work on B10 yielded a Raw Antigen Barcode Count [3] of 4 and a Normalized Barcode Count [4] of 0.826.

B11: Table 1 Line # 38 antibody (SP_B_cell) (antibody, human IgG4, V domains shown)
VH: EVHLVESGGGLAKPGGSLRLSCTASGFTFSTYNLNWVRQAPGKGLEWVSYISRSSVYIYYADSLKGRFTISRDDAKNSLYLQMNSLRAEDTAVYYCVRDDYGDYVPLDYWGQGTLVTVSS
VL: AIQMTQSPSSLSASVGDRITITCRASQGISNDLGWYQQKPGKAPKLLIFAASSLQSGVLSRFSGSGSGTDFTLTISSLQPEDVATYFCLQDYNFPRTFGQGTKVEIK
B11 showed an REGN560.L15 ab raw [2] of 6050 counts and an REGN78.L15 ab raw [1] of 66 counts.

B12: Table 1 Line # 33 antibody (SP_B_cell) (antibody, human IgG4, V domains shown)
VH: EVQLLESGGGLVQPGGSLRLSCAASRFTFSNYEMNWVRQAPGKGLEWLSYINTSGTTIYYADSVKGRFTISRDNAKNSLYLQMNSLRAEDTAVYYCARVNWNSDAFDIWGQGTMVTVSS
VL: EIVMTQSPATLSVSPGERATLSCRASQIVGSNLAWYHQKPGQAPRLLIYSASTRATGIPARFSGSGSGTEFTLTISSLQSEDFAVYYCQQYNNWPPFTFGPGTKVDIK
B12 was tested, and the REGN560.L15 ab raw [2] was 7340 counts and the REGN78.L15 ab raw [1] was 106 counts.

B13: Table 1 Line # 11 antibody (BM_Plasma_cell) (antibody, human IgG4, V domains shown)
VH: EVQLVESGGGLVQPGRSLRLSCAASGFTFDDYAMHWVRQAPGKGLEWVSGISWNSGSIGYADSVKGRFTISRDNAKNSLYLQMNSLRAEDTALYYCARDYSSAWYGYFDSWGQGTLVTVSS
VL: DIQMTQSPSSLSASVGDRVTITCRASQGINNYLAWYQQKPGKIPKLLIFTASTLQSGVPSRFSGSGSGTDFTLTINSLQPEDVATYYCQNYNSVPRTFGQGTKVEIK
B13 showed an REGN78.L15 ab raw [1] of 115 counts.

B14: Table 1 Line # 15 antibody (BM_Plasma_cell) (antibody, human IgG4, V domains shown)
VH: EVQLVESGGALVQPGRSLRLSCAASGFAFDDYAMHWVRQAPGKGLEWVSGISWNGASLGYADSLKGRFTISRDNAKNSLYLQMNSLRSEDTALFYCARDYSSAWYGYFDYWGQGTLVTVSS
VL: DIQMTQSPSSLSASVGDRVTITCRASQDISNYLAWYQQKPGKVPKLLIYAASTLQSGVPSRFSGSGSGTDFTLTISSLQPQDVATYYCQNYNSVPRTFGQGTKVEIK
Binder B14 has an REGN78.L15 ab raw [1] of 158 counts.

B15: Table 1 Line # 12 antibody (BM_Plasma_cell) (antibody, human IgG4, V domains shown)
VH: QVQLVESGGGVVQPGRSLRLSCAASGFTFSSYGMHWVRQAPGKGLEWVSVISYDGSNKYYADSVKGRFTISRDNSKNTLFLQVNSLRAEDTAVYYCAKEGRTGFDYWGQGTLVTVSS
VL: DIQMTQSPSSLSASVGDRVTITCRARQGISNYLAWFQQKPGKVPKLLIYAASTLQSGVPSRFSGSGSGTDFTLTISSLQPEDVATYYCQKYNSAPWTFGQGTKVEIK
Binder B15 has an REGN78.L15 ab raw [1] of 348 counts.

B16: Table 1 Line # 50 antibody (SP_Plasma_cell) (antibody, human IgG4, V domains shown)
VH: EVKLLESGGGLVQPGGSLRLSCAASGFSFSTYAMNWVRQAPGKGLEWVSAITGSGGSTYYADSVKGRFTMSRDNSKNTLYLQMNSLRAEDTAVYYCAKDRRGAFDIGGQGTMVTVSS
VL: DIQMTQSPSSVSASVGDRVTITCRASQGISSWLAWYQQKPGKVPKFLIYAASNLQSGVPSRFSGSGSGTDFTLTISSLQPEDFATYYCQQANSFPFTFGPGTKVDIK
For B16, the REGN560.L15 ab raw [2] was 924 counts.

B17: Candidate ID 16 (antibody, V domains shown)
VH: EVHLQQSGPDLVKPGASVMISCQASGYSFTAYYINWVKQSPEKSLEWIGEINPGSGGVIYNRKFEAKATLIVDKSSNTAFMLLTRLTSEDSAIYYCARKGFYQFDYWGQGTTLTVSS
VL: SVVMTQIPKFLVVSAGDRVTITCKASQSVNDGVFWYQQKTGQSPKLVIYHTSNRYTGVSDRFTGSGYGTEFTFTISAVQSEDLAIYFCQQDYTSPLTFGGGTRLEIK
Binder B17 has a Raw Antigen Barcode Count [3] of 3 and a Normalized Barcode Count [4] of 0.603.
